Reference: the DeepSol protein solubility set

Assay: soluble on expression in E. coli; label from the status in PepcDB or PDB records

Soluble on expression in E. coli, not soluble:
MGSDKIHHHHHHMENSKVSLKIDVLVAEIGSTTTVVNAFHDINTNNPIFLGQGQAPTTVFEGGDVRNGLSGAIKDLANKLSVDDIEYNDMFATSSAAGGLKMTVHGLVYDMTVKAAKEAALGAGAVIRQITSGRIKRTDLNKIKEINPNIILIAGGVDYGERDTAIYNAEMIASMNLGIPVIYAGNVENQEEIRLIFEDTNYKLYITENVYPKIDLLNIEPTRRIIQSVFEEHITTAPGMKYIKEMVNENITPTPGAVMEASKLLYKNIGDLLTLDVGGATTDVHSVTDGSDYINKILVNPEPTAKRSVEGDLGVYVNMKNIVEVIGKENLQSELSIDIDAVIENYPPIPKSKEEILFVERLTKEAVVKAMLRHSGKIRNIYGTTGKVKIAEGKDLTEVRYIVGTGGALTRLPSRIEILDNMLKYNKNNELLFPKEKTKILIDNDYIMASMGVLSKKYEEASLKLLLKSLNFEEERLCILG
MGSDKIHHHHHHMEPAGVYAKNVQIDRELSQRLHGALTCGKEELFQVVADPAPDVIRAALRNPAMDENHLLVLLGRRDLGEDLVAAIGRHDAVAESHKLKAALVRNPATPAQLVMSLLPHLYLFELVDLCLLAGVTPDQRVAAERAVIQRLSTTPLGNKITLARRATASILDALLKESDVRVVESCLTNPRLKEGSVFQLVSSSRATGDVIAAVARHQCWSNRPNLKAAMLKNPNTPTSLFSTLLASAPTMEVRNLAASGRLGTERKRLAAQELKRRGC
MGSDKIHHHHHHMERKTDSIDLAPLFHPDTIRLSRLAERLDDGPYHGGRIDPLALVITQREEATGQAGIDRYPMLQLAVGRAGMQVGQVDLGQLHPPVRSYLECRFHILKIVNLRHISIISRRNNSPEITLSHPKRQSPHALPYLCINIKKQHIMIRYKKYQNKNEKNVTTFNKWYARAVCEETVDIAALAEHMSTHNTPFSTGAIHGMLKDMVNCIKELLMDGKNVKIDDLGIFSVGIRSKGAVTPEDFSTQGNIIGVRLRARATGNLSSASLKLTAKLREYTEYSNGEVTPGGGGGDSESPDEI
MGSDKIHHHHHHMERLFESFIKKLAITNTSFVRSLMNEIEWEARLIGIKGARGVGKTTLLLQYIKLNLPMDKTVLYASVDNIWFSEHKLYDLASDFVKRGGKYLFLDEVHKYPNWSQELKNIYDDLPELHVVFTGSSLLEILNAKSDLSRRAIVYEMQGFSFREYLNWNEKLSLPILTLNNILDNHLALSVGIVDKVKVLKHFSDYLKHGYYPYYNELPSLYYSRINEVVNLIVELEIPQLRGVDISYTTKIKQLLYIIAESAPFIPNVSKLSERIGISRNSLLAYLDALHDSCLTMNLQKEGSGISRLQKPDKLFLENPNLMYALSASQIDIGNVRETFFANQLRYCHKINVSKESDFFIDGRYTFEVGGRHKGKQQINGLSDAYIVADDIEYGINNKIPLWLFGFLY
MGSDKIHHHHHHMESFYRTHAYLVEHTNAPVRRDLMDEIDWSDRLIGIKGTRGVGKTTFLLQYAKEKFGTDRSCLFINMNNFYFSGHSLVDFANEFQKRGGKVLLIDQVFKHPEWSKELRMCYDRFPSLKIVFTGSSVMRLKEENLELRDIAKSYNLRGFSFREFLNLQTGMKFRAYSLEEILSTHEQIAKGVLSKVRPLDYFQDYLHHGFYPFFLEKRNFSENLLKTMNMMVEVDILLIKQIELKYLSKIKKLLYLLAVDGPKAPNVSQLASDVQTSRATVMNYIKYLADARLINLVYPKGEEFPKKPSKIMMHNSNLMYSIYPVKVEEQDVLDTFFVNTLWKDHKVHKGDKNVSFMVDEVMPFKICAEGTKIKNNPDVTYALQKAEIGRGNQIPLWMFGFLY
MGSDKIHHHHHHMESMLKKICQDPVLQKDKDFLLFLTSDDFSSESKKRAFLTGSGAINDSNDLSEVRISEIQLLGAEDAAEVLKNGGIDAESHKGFMSISFSSLPKYNEADEFFIEKKQKIDELEDNLKKLSKSLEMVDTSRNTLAASTEEFSSMVETLASLNVSEPNSELLNNFADVHKSIKSSLERSSLQETLTMGVMLDDYIRSLASVKAIFNQRSKLGYFLVVIENDMNKKHSQLGKLGQNIHSEKFREMRKEFQTLERRYNLTKKQWQAVGDKIKDEFQGFSTDKIREFRNGMEISLEAAIESQKECIELWETFYQTNL
